Measured values: PMC6888877, “Deconstructing and repurposing the light-regulated interplay between Arabidopsis phytochromes and interacting factors” (Communications Biology, 2019)

Columns and labels:
Test in all cases: SEC; 50 µM AtPhyB PCM + 10 µM AtPIF-EYFP (5:1), illuminated with red light (650 nm, 2 min; results say 640 nm), Pfr state; Superdex 200 Increase 10/300 GL; 67 mM sodium phosphate pH 8.0, 200 mM NaCl
Conditions in all cases: both partners purified
P6.AA-EYFP = molecular target: T1, P6.AA-EYFP (Arabidopsis thaliana)
T1 chain: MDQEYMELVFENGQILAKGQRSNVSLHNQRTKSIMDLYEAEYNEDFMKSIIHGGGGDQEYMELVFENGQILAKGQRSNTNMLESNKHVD

P3.AA-EYFP = molecular target: T2, P3.AA-EYFP (Arabidopsis thaliana)
T2 chain: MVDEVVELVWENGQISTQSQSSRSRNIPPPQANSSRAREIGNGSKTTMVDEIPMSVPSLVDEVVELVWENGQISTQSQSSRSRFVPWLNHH

P6.A-EYFP = molecular target: T3, P6.A-EYFP (Arabidopsis thaliana)
T3 chain: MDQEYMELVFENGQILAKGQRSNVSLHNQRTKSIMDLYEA

P6.AAfus-EYFP = molecular target: T4, P6.AAfus-EYFP (Arabidopsis thaliana)
T4 chain: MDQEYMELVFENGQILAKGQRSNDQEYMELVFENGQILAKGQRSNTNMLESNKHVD

[1] = molecular target: T5, AtPIF3 (1-100)-EYFP, P3.100 (Arabidopsis thaliana, UniProt O80536 1-100)
T5 construct: A. thaliana PIF3, residues 1-100; His6-SUMO only on the pET-19b construct that was purified; the pET-28c construct used in lysate has the same AtPIF part, linker and EYFP; also called P3.100-EYFP; source: E. coli BL21(DE3): in crude lysate (pET-28c), and purified (pET-19b; IMAC, SENP2 cleavage, second IMAC, optional anion exchange); not shown: His6-SUMO, N-terminal, cleaved
T5 sequence (looked up): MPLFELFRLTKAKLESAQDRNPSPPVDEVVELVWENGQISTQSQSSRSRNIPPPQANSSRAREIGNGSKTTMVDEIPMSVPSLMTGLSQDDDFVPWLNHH

[2] = molecular target: T6, P6 (AtPIF6 1-100 without the N-terminal region preceding APB.A)-EYFP (Arabidopsis thaliana)
T6 chain: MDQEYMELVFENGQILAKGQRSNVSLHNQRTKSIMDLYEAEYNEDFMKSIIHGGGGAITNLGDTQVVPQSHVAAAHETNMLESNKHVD

[3] = molecular target: T7, P3 (AtPIF3 1-100 without the N-terminal region preceding APB.A)-EYFP (Arabidopsis thaliana)
T7 chain: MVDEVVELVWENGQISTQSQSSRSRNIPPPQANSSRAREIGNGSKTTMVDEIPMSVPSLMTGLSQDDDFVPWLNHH

P3.fus-EYFP = molecular target: T8, P3.fus-EYFP (Arabidopsis thaliana)
T8 chain: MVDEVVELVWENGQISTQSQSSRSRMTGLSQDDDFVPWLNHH

P6.As-EYFP = molecular target: T9, P6.As-EYFP (Arabidopsis thaliana)
T9 chain: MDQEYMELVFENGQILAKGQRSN

[4] = molecular target: T10, AtPIF6 (1-100)-EYFP, P6.100 (Arabidopsis thaliana, UniProt Q8L5W7 1-100)
T10 construct: A. thaliana PIF6, residues 1-100; His6-SUMO only on the pET-19b construct that was purified; the pET-28c construct used in lysate has the same AtPIF part, linker and EYFP; also called P6.100-EYFP; source: E. coli BL21(DE3): in crude lysate (pET-28c), and purified (pET-19b; IMAC, SENP2 cleavage, second IMAC, optional anion exchange); not shown: His6-SUMO, N-terminal, cleaved
T10 sequence (looked up): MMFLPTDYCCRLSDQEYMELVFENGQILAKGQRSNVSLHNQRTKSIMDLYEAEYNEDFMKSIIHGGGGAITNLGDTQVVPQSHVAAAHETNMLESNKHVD

P3.AAfus-EYFP = molecular target: T11, P3.AAfus-EYFP (Arabidopsis thaliana)
T11 chain: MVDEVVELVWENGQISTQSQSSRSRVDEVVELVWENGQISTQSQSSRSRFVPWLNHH

Measured: stoichiometry N

B1: Arabidopsis thaliana phytochrome B photosensory core module (AtPhyB PCM) (domain or fragment, UniProt P14713 1-651, looked up)
chain: MVSGVGGSGGGRGGGRGGEEEPSSSHTPNNRRGGEQAQSSGTKSLRPRSNTESMSKAIQQYTVDARLHAVFEQSGESGKSFDYSQSLKTTTYGSSVPEQQITAYLSRIQRGGYIQPFGCMIAVDESSFRIIGYSENAREMLGIMPQSVPTLEKPEILAMGTDVRSLFTSSSSILLERAFVAREITLLNPVWIHSKNTGKPFYAILHRIDVGVVIDLEPARTEDPALSIAGAVQSQKLAVRAISQLQALPGGDIKLLCDTVVESVRDLTGYDRVMVYKFHEDEHGEVVAESKRDDLEPYIGLHYPATDIPQASRFLFKQNRVRMIVDCNATPVLVVQDDRLTQSMCLVGSTLRAPHGCHSQYMANMGSIASLAMAVIINGNEDDGSNVASGRSSMRLWGLVVCHHTSSRCIPFPLRYACEFLMQAFGLQLNMELQLALQMSEKRVLRTQTLLCDMLLRDSPAGIVTQSPSIMDLVKCDGAAFLYHGKYYPLGVAPSEVQIKDVVEWLLANHADSTGLSTDSLGDAGYPGAAALGDAVCGMAVAYITKRDFLFWFRSHTAKEIKWGGAKHHPEDKDDGQRMHPRSSFQAFLEVVKSRSQPWETAEMDAIHSLQLILRDSFKESEAAMNSKVVDGVVQPCRDMAGEQGIDELGA
modifications: covalently incorporated bilin chromophore (PCB; co-expressed Synechocystis sp. heme oxygenase 1 and pcyA)
notes: A. thaliana phytochrome B, photosensory core module (PAS-GAF-PHY with N-terminal extension), residues 1-651; Pr state (far-red light or dark) and Pfr state (red light; Pfr/Pr about 0.56/0.44) are told apart by the assays; In the cell experiments other constructs were used (PCM-VP16; PCM 1-650 with CAAX); source: E. coli BL21(DE3), plasmid pDG282, purified (Ni-NTA IMAC, anion exchange)
1: all assays above
